target: human CD38 antigen (recombinant human CD38 protein) (human, UniProt P28907 43-300, limits assumed); experiment: SPR, IgG captured on anti-human Fc, human CD38 in solution;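 further: humanized IgG captured on an amine-coupled anti-human Fc HC30M chip, with human CD38 injected as a dilution series from 1000 nM downward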

| Binder | Kd [µM] |
| --- | --- |
| L1H1 (antibody, V domains shown, Humanized AT13/5 IgG, VL1 + VH1) VH: QVQLQESGPGLVKPSETLSLTCTVSGFSLTSYGVHWIRQPPGKGLEWIGVMWRGGSTDYNPSLKSRVTISKDNSKRQFSLKLSSVTAADTAVYYCAKSMITTGFVMDSWGQGTLVTVSS VL: DIQMTQSPSSLSASVGDRVTITCRASEDIYNRLTWYQQKPGKAPKLLLSGATSLETGVPSRFSGSGSGKDYTLTISSLQPEDFATYYCQQYWSNPYTFGGGTKVEIK | 0.87 |
| L3H7 (antibody, V domains shown, Humanized AT13/5 IgG, VL3 + VH7) VH: QVQLKQSGPGLVKPSETLSLTCTVSGFSLTSYGVHWIRQPPGKGLEWIGVMWRGGSTNYNPSLKSRLTISVDTSKNQFSLKLSSVTAADTAVYYCAKSMITTGFVMDSWGQGTLVTVSS VL: DIQMTQSPSSLSASVGDRVTITCRASEDIYNRLTWYQQKPGKAPKLLLSGATSLETGVPSRFSGSGSGTDYTLTISSLQPEDFATYYCQQYWSNPYTFGGGTKVEIK | 0.1 |
| L3H6 (antibody, V domains shown, Humanized AT13/5 IgG, VL3 + VH6) VH: QVQLQESGPGLVKPSETLSLTCTVSGFSLTSYGVHWIRQPPGKGLEWLGVMWRGGSTNYNPSLKSRVTISKDTSKNQFSLKLSSVTAADTAVYYCAKSMITTGFVMDSWGQGTLVTVSS VL: DIQMTQSPSSLSASVGDRVTITCRASEDIYNRLTWYQQKPGKAPKLLLSGATSLETGVPSRFSGSGSGTDYTLTISSLQPEDFATYYCQQYWSNPYTFGGGTKVEIK | 1.3 |
| L2H3 (antibody, V domains shown, Humanized AT13/5 IgG, VL2 + VH3) VH: QVQLQESGPGLVKPSETLSITCTVSGFSLTSYGVHWIRQPPGKGLEWIGVMWRGGSTDYNPSLKSRVTISKDTSKNQFSLKLSSLTAADTAVYYCAKSMITTGFVMDSWGQGTLVTVSS VL: DIQMTQSPSSLSASVGDRVTITCRASEDIYNRLAWYQQKPGKAPKLLLSGATSLETGVPSRFSGSGSGTDYTLTISSLQPEDFATYYCQQYWSNPYTFGGGTKVEIK | 0.83 |
| L3H4 (antibody, V domains shown, Humanized AT13/5 IgG, VL3 + VH4) VH: QVQLQESGPGLVKPSETLSLTCTVSGFSLTSYGVHWIRQPPGKGLEWIGVMWRGGSTDYNPSLKSRVTISVDTSKRQVSLKLSSVTAADTAVYYCAKSMITTGFVMDSWGQGTLVTVSS VL: DIQMTQSPSSLSASVGDRVTITCRASEDIYNRLTWYQQKPGKAPKLLLSGATSLETGVPSRFSGSGSGTDYTLTISSLQPEDFATYYCQQYWSNPYTFGGGTKVEIK | 1.2 |
| L1H4 (antibody, V domains shown, Humanized AT13/5 IgG, VL1 + VH4) VH: QVQLQESGPGLVKPSETLSLTCTVSGFSLTSYGVHWIRQPPGKGLEWIGVMWRGGSTDYNPSLKSRVTISVDTSKRQVSLKLSSVTAADTAVYYCAKSMITTGFVMDSWGQGTLVTVSS VL: DIQMTQSPSSLSASVGDRVTITCRASEDIYNRLTWYQQKPGKAPKLLLSGATSLETGVPSRFSGSGSGKDYTLTISSLQPEDFATYYCQQYWSNPYTFGGGTKVEIK | 0.3 |
| L3H2 (antibody, V domains shown, Humanized AT13/5 IgG, VL3 + VH2) VH: QVQLQESGPGLVKPSETLSLTCTVSGFSLTSYGVHWVRQPPGKGLEWIGVMWRGGSTDYNPSLKSRVTISKDNSKRQFSLKMSSVTAADTAVYYCAKSMITTGFVMDSWGQGTLVTVSS VL: DIQMTQSPSSLSASVGDRVTITCRASEDIYNRLTWYQQKPGKAPKLLLSGATSLETGVPSRFSGSGSGTDYTLTISSLQPEDFATYYCQQYWSNPYTFGGGTKVEIK | 0.46 |
| L2H7 (antibody, V domains shown, Humanized AT13/5 IgG, VL2 + VH7) VH: QVQLKQSGPGLVKPSETLSLTCTVSGFSLTSYGVHWIRQPPGKGLEWIGVMWRGGSTNYNPSLKSRLTISVDTSKNQFSLKLSSVTAADTAVYYCAKSMITTGFVMDSWGQGTLVTVSS VL: DIQMTQSPSSLSASVGDRVTITCRASEDIYNRLAWYQQKPGKAPKLLLSGATSLETGVPSRFSGSGSGTDYTLTISSLQPEDFATYYCQQYWSNPYTFGGGTKVEIK | 0.39 |
| L2H1 (antibody, V domains shown, Humanized AT13/5 IgG, VL2 + VH1) VH: QVQLQESGPGLVKPSETLSLTCTVSGFSLTSYGVHWIRQPPGKGLEWIGVMWRGGSTDYNPSLKSRVTISKDNSKRQFSLKLSSVTAADTAVYYCAKSMITTGFVMDSWGQGTLVTVSS VL: DIQMTQSPSSLSASVGDRVTITCRASEDIYNRLAWYQQKPGKAPKLLLSGATSLETGVPSRFSGSGSGTDYTLTISSLQPEDFATYYCQQYWSNPYTFGGGTKVEIK | 0.95 |
| L3H3 (antibody, V domains shown, Humanized AT13/5 IgG, VL3 + VH3) VH: QVQLQESGPGLVKPSETLSITCTVSGFSLTSYGVHWIRQPPGKGLEWIGVMWRGGSTDYNPSLKSRVTISKDTSKNQFSLKLSSLTAADTAVYYCAKSMITTGFVMDSWGQGTLVTVSS VL: DIQMTQSPSSLSASVGDRVTITCRASEDIYNRLTWYQQKPGKAPKLLLSGATSLETGVPSRFSGSGSGTDYTLTISSLQPEDFATYYCQQYWSNPYTFGGGTKVEIK | 1.2 |
| L2H2 (antibody, V domains shown, Humanized AT13/5 IgG, VL2 + VH2) VH: QVQLQESGPGLVKPSETLSLTCTVSGFSLTSYGVHWVRQPPGKGLEWIGVMWRGGSTDYNPSLKSRVTISKDNSKRQFSLKMSSVTAADTAVYYCAKSMITTGFVMDSWGQGTLVTVSS VL: DIQMTQSPSSLSASVGDRVTITCRASEDIYNRLAWYQQKPGKAPKLLLSGATSLETGVPSRFSGSGSGTDYTLTISSLQPEDFATYYCQQYWSNPYTFGGGTKVEIK | 0.91 |
| L1H7 (antibody, V domains shown, Humanized AT13/5 IgG, VL1 + VH7) VH: QVQLKQSGPGLVKPSETLSLTCTVSGFSLTSYGVHWIRQPPGKGLEWIGVMWRGGSTNYNPSLKSRLTISVDTSKNQFSLKLSSVTAADTAVYYCAKSMITTGFVMDSWGQGTLVTVSS VL: DIQMTQSPSSLSASVGDRVTITCRASEDIYNRLTWYQQKPGKAPKLLLSGATSLETGVPSRFSGSGSGKDYTLTISSLQPEDFATYYCQQYWSNPYTFGGGTKVEIK | 8.5 |
| L4H1 (antibody, V domains shown, Humanized AT13/5 IgG, VL4 + VH1) VH: QVQLQESGPGLVKPSETLSLTCTVSGFSLTSYGVHWIRQPPGKGLEWIGVMWRGGSTDYNPSLKSRVTISKDNSKRQFSLKLSSVTAADTAVYYCAKSMITTGFVMDSWGQGTLVTVSS VL: DIQMTQSPSSLSASVGDRVTITCRASEDIYNRLTWYQQKPGKAPKLLLYGATSLETGVPSRFSGSGSGKDYTLTISSLQPEDFATYYCQQYWSNPYTFGGGTKVEIK | 0.1 |
| L4H3 (antibody, V domains shown, Humanized AT13/5 IgG, VL4 + VH3) VH: QVQLQESGPGLVKPSETLSITCTVSGFSLTSYGVHWIRQPPGKGLEWIGVMWRGGSTDYNPSLKSRVTISKDTSKNQFSLKLSSLTAADTAVYYCAKSMITTGFVMDSWGQGTLVTVSS VL: DIQMTQSPSSLSASVGDRVTITCRASEDIYNRLTWYQQKPGKAPKLLLYGATSLETGVPSRFSGSGSGKDYTLTISSLQPEDFATYYCQQYWSNPYTFGGGTKVEIK | 0.2 |
| L1H6 (antibody, V domains shown, Humanized AT13/5 IgG, VL1 + VH6) VH: QVQLQESGPGLVKPSETLSLTCTVSGFSLTSYGVHWIRQPPGKGLEWLGVMWRGGSTNYNPSLKSRVTISKDTSKNQFSLKLSSVTAADTAVYYCAKSMITTGFVMDSWGQGTLVTVSS VL: DIQMTQSPSSLSASVGDRVTITCRASEDIYNRLTWYQQKPGKAPKLLLSGATSLETGVPSRFSGSGSGKDYTLTISSLQPEDFATYYCQQYWSNPYTFGGGTKVEIK | 0.031 |
| L4H4 (antibody, V domains shown, Humanized AT13/5 IgG, VL4 + VH4) VH: QVQLQESGPGLVKPSETLSLTCTVSGFSLTSYGVHWIRQPPGKGLEWIGVMWRGGSTDYNPSLKSRVTISVDTSKRQVSLKLSSVTAADTAVYYCAKSMITTGFVMDSWGQGTLVTVSS VL: DIQMTQSPSSLSASVGDRVTITCRASEDIYNRLTWYQQKPGKAPKLLLYGATSLETGVPSRFSGSGSGKDYTLTISSLQPEDFATYYCQQYWSNPYTFGGGTKVEIK | 0.14 |
| L3H1 (antibody, V domains shown, Humanized AT13/5 IgG, VL3 + VH1) VH: QVQLQESGPGLVKPSETLSLTCTVSGFSLTSYGVHWIRQPPGKGLEWIGVMWRGGSTDYNPSLKSRVTISKDNSKRQFSLKLSSVTAADTAVYYCAKSMITTGFVMDSWGQGTLVTVSS VL: DIQMTQSPSSLSASVGDRVTITCRASEDIYNRLTWYQQKPGKAPKLLLSGATSLETGVPSRFSGSGSGTDYTLTISSLQPEDFATYYCQQYWSNPYTFGGGTKVEIK | 0.65 |
| L1H2 (antibody, V domains shown, Humanized AT13/5 IgG, VL1 + VH2) VH: QVQLQESGPGLVKPSETLSLTCTVSGFSLTSYGVHWVRQPPGKGLEWIGVMWRGGSTDYNPSLKSRVTISKDNSKRQFSLKMSSVTAADTAVYYCAKSMITTGFVMDSWGQGTLVTVSS VL: DIQMTQSPSSLSASVGDRVTITCRASEDIYNRLTWYQQKPGKAPKLLLSGATSLETGVPSRFSGSGSGKDYTLTISSLQPEDFATYYCQQYWSNPYTFGGGTKVEIK | 0.4 |
| L1H3 (antibody, V domains shown, Humanized AT13/5 IgG, VL1 + VH3) VH: QVQLQESGPGLVKPSETLSITCTVSGFSLTSYGVHWIRQPPGKGLEWIGVMWRGGSTDYNPSLKSRVTISKDTSKNQFSLKLSSLTAADTAVYYCAKSMITTGFVMDSWGQGTLVTVSS VL: DIQMTQSPSSLSASVGDRVTITCRASEDIYNRLTWYQQKPGKAPKLLLSGATSLETGVPSRFSGSGSGKDYTLTISSLQPEDFATYYCQQYWSNPYTFGGGTKVEIK | 0.81 |
| L1H5 (antibody, V domains shown, Humanized AT13/5 IgG, VL1 + VH5) VH: QVQLQESGPGLVKPSETLSLTCTVSGFSLTSYGVHWIRQPPGKGLEWIGVMWRGGSTDYNPSLKSRVTISVDTSKNQFSFKLSSVTAADTAIYYCAKSMITTGFVMDSWGQGTLVTVSS VL: DIQMTQSPSSLSASVGDRVTITCRASEDIYNRLTWYQQKPGKAPKLLLSGATSLETGVPSRFSGSGSGKDYTLTISSLQPEDFATYYCQQYWSNPYTFGGGTKVEIK | 1.8 |
| L2H6 (antibody, V domains shown, Humanized AT13/5 IgG, VL2 + VH6) VH: QVQLQESGPGLVKPSETLSLTCTVSGFSLTSYGVHWIRQPPGKGLEWLGVMWRGGSTNYNPSLKSRVTISKDTSKNQFSLKLSSVTAADTAVYYCAKSMITTGFVMDSWGQGTLVTVSS VL: DIQMTQSPSSLSASVGDRVTITCRASEDIYNRLAWYQQKPGKAPKLLLSGATSLETGVPSRFSGSGSGTDYTLTISSLQPEDFATYYCQQYWSNPYTFGGGTKVEIK | 1.9 |
| L4H2 (antibody, V domains shown, Humanized AT13/5 IgG, VL4 + VH2) VH: QVQLQESGPGLVKPSETLSLTCTVSGFSLTSYGVHWVRQPPGKGLEWIGVMWRGGSTDYNPSLKSRVTISKDNSKRQFSLKMSSVTAADTAVYYCAKSMITTGFVMDSWGQGTLVTVSS VL: DIQMTQSPSSLSASVGDRVTITCRASEDIYNRLTWYQQKPGKAPKLLLYGATSLETGVPSRFSGSGSGKDYTLTISSLQPEDFATYYCQQYWSNPYTFGGGTKVEIK | 0.25 |
